# Experimental data as given in article PMC7353053, “Characterisation of the Effect of the Spatial Organisation of Hemicellulases on the Hydrolysis of Plant Biomass Polymer” (International Journal of Molecular Sciences, 2020).
# B1: His-Jo-BhXyl43 (Halalkalibacterium halodurans C-125) (protein)
# chain: MVNRIQNPILPGFHPDPSIVRVGDDYYIATSTFEWFPGVRIHHSRDLKHWRFVSSPLTRTSQLDMKGNMNSGGIWAPCLSYHDGTFYLIYTDVKQWHGAFKDAHNYLVTAQNIEGPWSDPIYLNSSGFDPSLFHDDDGRKWLVNMIWDYRKGNHPFAGIILQEYSEAEQKLVGPVKNIYKGTDIQLTEGPHLYKKDGYYYLLVAEGGTEYEHAATLARSQSIDGPYETDPSYPLVTSTGQPELALQKAGHGSLVETQNGEWYLAHLCGRPLKGKYCTLGRETAIQKVNWTEDGWLRIEDGGNHPLREVTAPDLPEHPFEKEPELDDFDAPQLHHQWNTLRIPADPSWCSLEERPGHLRLRGMESLTSVHSQSLVARRQQSFHCEVETKLEYQPESFQHMAGLVIYYDTEDHVYLHVTWHEEKGKCLQIIQTKGGNYDELLASPIPLAEEKAVYLKGRIHRETMHLYFKQEGEAEWQPVGPTIDVTHMSDDSAKQVRFTGTFVGMATQDLSGTKKPADFDYFRYKELDQ
# notes: N-terminal His6 tag and Jo module (about 10 kDa, isopeptide-forming fragment) fused to the N-terminus of BhXyl43 (63 kDa); expressed in E. coli BL21(DE3), IMAC purified
# Experiments:
# [1] = target: His-In-NpXyn11A-Jo-BhXyl43 (not stated | Neocallimastix patriciarum | Bacillus halodurans C-125); experiment: SAXS; proteins in 50 mM phosphate pH 7, around 10 mg/mL; direct injection and online SEC-HPLC curves merged; fit to the dimer of PDB 1YRZ or rigid body modelling; dimer to monomers
# [2] = target: His-BhXyl43 (Bacillus halodurans C-125); experiment: as above
# [3] = target: His-In-NpXyn11A-BhXyl43-Jo (not stated | Neocallimastix patriciarum | Bacillus halodurans C-125); experiment: as above
# purified protein = substrate: O=[N+]([O-])c1ccc(O[C@@H]2OC[C@@H](O)[C@H](O)[C@H]2O)cc1; experiment: purified protein; assay type: biochemical, Halalkalibacterium halodurans; settings: 50 mM Tris-HCl pH 8, 1 mg/mL BSA, 45 °C, 10 min, 0.1 to 18 mM substrate
molecule,measurement,setting,value
His-In-NpXyn11A-Jo-BhXyl43 (complex),stoichiometry N,[1],2
His-BhXyl43 (enzyme),stoichiometry N,[2],2
His-In-NpXyn11A-BhXyl43-Jo (complex),stoichiometry N,[3],2
B1,Km,purified protein,6.01 ± 0.41 mM
same,kcat,purified protein,18.1 ± 1.17 s⁻¹
same,kcat/Km,purified protein,3015 ± 10.9 M⁻¹ s⁻¹
